{"source": "paper PMC4103810", "about": "“Flexibility of PCNA-Protein Interface Accommodates Differential Binding Partners” (PLoS ONE, 2014)", "molecules": {"B1": {"name": "N-terminal fluorescein isothiocyanate (FITC) labeled PL peptide (peptide)", "peptide": "{FITC-Ahx}-SAVLQKKITDYFHPKK", "notes": "Synthesised on CLEAR Amide resin, so the C-terminus is probably an amide (surmised); also called FITC-PL peptide; FITC-PL; source: synthetic peptide (solid phase, HPLC purified)"}, "B2": {"name": "p21 12-mer PIP Box peptide mimic (peptide)", "peptide": "RRQTSMTDFYHS", "notes": "12-mer modeled after the C-terminal PIP Box of the tumor suppressor p21; Synthesised on CLEAR Amide resin, so the C-terminus is probably an amide (surmised); also called p21 peptide; p21 12-amino acid peptide; source: synthetic peptide (solid phase, HPLC purified)"}, "B3": {"name": "DNA polymerase δ (p66 subunit) 12-mer PIP Box peptide mimic (peptide)", "peptide": "NRQVSITGFFQR", "notes": "12-mer modeled after the PIP Box of the p66 subunit of DNA polymerase δ; Synthesised on CLEAR Amide resin, so the C-terminus is probably an amide (surmised); also called p66 peptide; source: synthetic peptide (solid phase, HPLC purified)"}, "B4": {"name": "Abl 12-mer PIP Box peptide mimic (peptide)", "peptide": "PGQRSISLRYEG", "notes": "Synthesised on CLEAR Amide resin, so the C-terminus is probably an amide (surmised); also called Abl peptide; source: synthetic peptide (solid phase, HPLC purified)"}, "B5": {"name": "PI3K (p85α subunit) 12-mer PIP Box peptide mimic (peptide)", "peptide": "TLQYLLKHFFKL", "notes": "12-mer modeled after the PIP Box of PI3-kinase p85α, found by a screen of the human genome; Synthesised on CLEAR Amide resin, so the C-terminus is probably an amide (surmised); also called p85α peptide; PI3-kinase (p85α regulatory domain); source: synthetic peptide (solid phase, HPLC purified)"}, "B6": {"name": "Akt 12-mer reverse PIP Box peptide mimic (peptide)", "peptide": "HRFFAGIVWQHV", "notes": "12-mer modeled after the reverse PIP Box of Akt, found by a screen of the human genome; Synthesised on CLEAR Amide resin, so the C-terminus is probably an amide (surmised); also called Akt peptide; reverse-PIP Box Akt peptide; source: synthetic peptide (solid phase, HPLC purified)"}, "B7": {"name": "unlabeled POGO-ligase (PL) peptide (peptide)", "peptide": "SAVLQKKITDYFHPKK", "notes": "Synthesised on CLEAR Amide resin, so the C-terminus is probably an amide (surmised); also called control PL peptide; source: synthetic peptide (solid phase, HPLC purified)"}, "B8": {"name": "DNA polymerase δ (p66 subunit) 12-mer PIP Box peptide (peptide)", "peptide": "NRQVSITGFFQR", "notes": "PIP Box stretch of the p66 subunit of DNA polymerase δ (POLD3); Made on CLEAR Amide resin, so the C-terminus is probably an amide; source: synthetic peptide (solid phase, HPLC purified)"}, "B9": {"name": "Abl 12-mer PIP Box peptide (peptide)", "peptide": "PGQRSISLRYEG", "notes": "PIP Box stretch of Abl (ABL1), lying in the SH2 domain; Made on CLEAR Amide resin, so the C-terminus is probably an amide; source: synthetic peptide (solid phase, HPLC purified)"}, "B10": {"name": "PI3K (p85α subunit) 12-mer PIP Box peptide (peptide)", "peptide": "TLQYLLKHFFKL", "notes": "PIP Box stretch of the PI3-kinase p85α regulatory subunit (PIK3R1), found by screening the human genome; Made on CLEAR Amide resin, so the C-terminus is probably an amide; also called PI3-kinase (p85α regulatory domain); source: synthetic peptide (solid phase, HPLC purified)"}, "B11": {"name": "Akt 12-mer reverse PIP Box peptide (peptide)", "peptide": "HRFFAGIVWQHV", "notes": "reverse PIP Box stretch of Akt, found by screening the human genome; Made on CLEAR Amide resin, so the C-terminus is probably an amide; source: synthetic peptide (solid phase, HPLC purified)"}}, "key": {"recombinant PCNA protein [1]": {"target": "T1, recombinant PCNA protein (Homo sapiens, UniProt P12004)", "T1 sequence (P12004 whole entry)": "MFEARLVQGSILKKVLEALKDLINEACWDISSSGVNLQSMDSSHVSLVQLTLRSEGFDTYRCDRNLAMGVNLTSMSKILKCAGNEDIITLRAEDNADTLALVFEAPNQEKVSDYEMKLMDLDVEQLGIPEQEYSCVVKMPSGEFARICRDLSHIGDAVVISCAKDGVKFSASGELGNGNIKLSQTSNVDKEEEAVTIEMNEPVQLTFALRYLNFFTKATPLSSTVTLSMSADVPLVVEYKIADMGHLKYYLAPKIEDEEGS", "assay": "ITC", "settings": "cited from earlier work"}, "[2]": {"assay": "Aggregation observed in the fluorescence polarization competition assay", "type": "physicochemical", "settings": "FP competition assay, binding buffer; result in words", "procedure": "Competition assays were analyzed by fluorescence polarization on a DTX880 Multimode plate reader (Beckman Coulter) using an excitation of 485 nm and an emission filter at 535 nm at 30°C. Anisotropy values (N = 4) were statistically evaluated using Grubbs' test for outliers at a significance level of 0.05 and converted to fraction of FITC-PL peptide bound (fb) using Eq. (3) and represented as mean ± standard error of mean (Y)."}, "recombinant PCNA protein [3]": {"target": "T1, recombinant PCNA protein", "assay": "Fluorescence polarization competition assay (displacement of FITC-PL peptide from PCNA)", "type": "binding", "set-up": "(His)6 (N); TEV protease recognition site (N); made in house; host or cells: E. coli BL21(DE3)", "procedure": "(3) and represented as mean ± standard error of mean (Y). Fraction of the FITC-PL peptide bound (Y) was plotted as a function of the logarithm of the 12 amino acid peptide antagonist concentration (X), and IC50 values were determined by fitting the data to Eq. […] Anisotropy values were also analyzed using complete and incomplete binding models without non-specific effects as outlined in Roehrl et al.."}, "[4]": {"target": "T2, recombinant PCNA protein (N-terminal (His)6-PCNA) (human, UniProt P12004 1-261)", "T2 construct": "PCNA, human; amplified by PCR from a template plasmid (Genecoepia) into pEV-L8, which has an N-terminal (His)6-tag and a TEV protease recognition site; No TEV cleavage is described; also called human PCNA; source: E. coli BL21(DE3), purified (Ni-NTA)", "T2 sequence (P12004 whole entry)": "as above", "assay": "fluorescence polarisation; direct binding: increasing recombinant PCNA (monomer concentration) added to 50 nM FITC-PL peptide; 25 mM HEPES pH 7.4, 10% glycerol, 0.01% Triton X-100; 30 min at room temperature, read at 30°C; fit with a Hill slope", "settings": "both partners purified"}, "[5]": {"target": "T2, recombinant PCNA protein (N-terminal …)", "assay": "fluorescence polarisation; competition: increasing unlabeled peptide with 50 nM FITC-PL peptide and 1 µM PCNA (monomer concentration); 25 mM HEPES pH 7.4, 10% glycerol, 0.01% Triton X-100; 30 min at room temperature, read at 30°C; Ki from a modified Cheng-Prusoff equation", "settings": "both partners purified"}, "[6]": {"target": "T2, recombinant PCNA protein (N-terminal …)", "assay": "fluorescence polarisation; competition: increasing unlabeled peptide with 50 nM FITC-PL peptide and 1 µM PCNA (monomer concentration); 25 mM HEPES pH 7.4, 10% glycerol, 0.01% Triton X-100; 30 min at room temperature, read at 30°C; Ki from a modified Cheng-Prusoff equation", "settings": "both partners purified", "remark": "listed apart in the source"}, "recombinant PCNA protein [7]": {"target": "T3, recombinant PCNA protein (human, UniProt P12004 1-261)", "T3 construct": "PCNA (proliferating cell nuclear antigen), human; The vector has a TEV protease site after the (His)6 tag, and no cleavage is described; also called (His)6-PCNA; source: E. coli BL21(DE3), purified (Ni-NTA, dialysis)", "T3 sequence (P12004 whole entry)": "as above", "assay": "fluorescence polarisation; competition: increasing unlabeled 12-mer peptide against 50 nM N-terminal FITC-PL peptide and 1 µM PCNA (monomer concentration); 25 mM HEPES pH 7.4, 10% glycerol, 0.01% Triton X-100; 30 min at room temperature, read at 30°C; fraction of FITC-PL bound fitted to the complete (Eq. 6) or incomplete (Eq. 7, four-state) competition model of Roehrl et al.; estimated dissociation constants", "settings": "both partners purified"}}, "note": "No end group written: not given here. *: point of attachment. FITC = O=C1OC2(c3ccc(O)cc3Oc3cc(O)ccc32)c2ccc(NC(=S)*)cc21; Ahx = NCCCCCC(=O)O"}
{"molecule": "p21 12-mer PIP box peptide PIP box (from UniProt P38936)", "values": [{"measurement": "Kd", "setting": "recombinant PCNA protein [1]", "result": 640, "unit": "nM"}]}
{"molecule": "GVQRNHETAFQG [Mcl-1]", "values": [{"measurement": "aggregation of the tracer at higher concentrations", "setting": "[2]", "result": "not observed"}, {"measurement": "binding to recombinant PCNA in the competition assay", "setting": "recombinant PCNA protein [3]; result in words", "result": "did not bind"}]}
{"molecule": "RRQTSMTDFYHS-NH2 [p21]", "values": [{"measurement": "Kd", "setting": "recombinant PCNA protein [3]; estimated dissociation constant of competitive ligand-PCNA interaction, Roehrl et al. binding models, Eq. (6)/(7), read-out: Kd2", "result": "615 ± 251", "unit": "nM"}, {"measurement": "Kd", "setting": "recombinant PCNA protein [3]; incomplete competition model (four state), Roehrl et al., Eq. (7), read-out: Kd3", "result": "3100 ± 200", "unit": "nM"}]}
{"molecule": "NRQVSITGFFQR [DNA polymerase δ (p66 subunit), 12-amino acid PIP Box peptide modeled after the p66 subunit of DNA polymerase δ]", "values": [{"measurement": "Hill Slope", "setting": "recombinant PCNA protein [3]; Hill slope n of the fit to Eq. (4), 50 nM FITC-PL, 1 µM PCNA (monomer)", "result": "−1.2±0.2"}]}
{"molecule": "B1", "values": [{"measurement": "Kd", "setting": "[4]", "result": "760 ± 19", "unit": "nM"}]}
{"molecule": "B2", "values": [{"measurement": "IC50", "setting": "[5]", "result": "1800 ± 500", "unit": "nM"}, {"measurement": "Ki", "setting": "[5]", "result": 477, "unit": "nM"}, {"measurement": "fb at [peptide]max (fraction of FITC-PL bound)", "setting": "[5]", "result": 0.25}]}
{"molecule": "B3", "values": [{"measurement": "IC50", "setting": "[5]", "result": "67900 ± 15800", "unit": "nM"}, {"measurement": "Ki", "setting": "[5]", "result": 28900, "unit": "nM"}, {"measurement": "fb at [peptide]max (fraction of FITC-PL bound)", "setting": "[5]", "result": 0}]}
{"molecule": "B4", "values": [{"measurement": "IC50", "setting": "[5]", "result": "71300 ± 12100", "unit": "nM"}, {"measurement": "Ki", "setting": "[5]", "result": 30400, "unit": "nM"}, {"measurement": "fb at [peptide]max (fraction of FITC-PL bound)", "setting": "[5]", "result": 0.1}]}
{"molecule": "B5", "values": [{"measurement": "IC50", "setting": "[5]", "result": "7500 ± 300", "unit": "nM"}, {"measurement": "Ki", "setting": "[5]", "result": 2900, "unit": "nM"}, {"measurement": "fb at [peptide]max (fraction of FITC-PL bound)", "setting": "[5]", "result": 0}]}
{"molecule": "B6", "values": [{"measurement": "IC50", "setting": "[5]", "result": "8500 ± 4200", "unit": "nM"}, {"measurement": "Ki", "setting": "[5]", "result": 3400, "unit": "nM"}, {"measurement": "fb at [peptide]max (fraction of FITC-PL bound)", "setting": "[5]", "result": 0.06}]}
{"molecule": "B7", "values": [{"measurement": "IC50", "setting": "[6]", "result": "144 ± 13", "unit": "nM"}, {"measurement": "IC50", "setting": "[5]", "result": "145 ± 13", "unit": "nM"}, {"measurement": "Ki", "setting": "[5]", "result": 136, "unit": "nM"}, {"measurement": "fb at [peptide]max (fraction of FITC-PL bound)", "setting": "[5]", "result": 0}]}
{"molecule": "B8", "values": [{"measurement": "Kd", "setting": "recombinant PCNA protein [7]", "result": "20800 ± 4400", "unit": "nM"}]}
{"molecule": "B9", "values": [{"measurement": "Kd", "setting": "recombinant PCNA protein [7]", "result": "52900 ± 14700", "unit": "nM"}]}
{"molecule": "B10", "values": [{"measurement": "Kd", "setting": "recombinant PCNA protein [7]", "result": "1600 ± 600", "unit": "nM"}]}
{"molecule": "B11", "values": [{"measurement": "Kd", "setting": "recombinant PCNA protein [7]", "result": "2000 ± 400", "unit": "nM"}]}
